According to US11939397B2, “ENTPD2 antibodies, combination therapies, and methods of using the antibodies and combination therapies” (Novartis AG, priority 2018, dated 2024):

T1: recombinant human ENTPD2 (residues 29-462) (Homo sapiens, UniProt Q9Y5L3)
T1 construct: residues 29-462 of human or cyno ENTPD2 were cloned into expression vector; GP67 signal peptide (N); made in house; host or cells: High Five (Trichoplusia ni) insect cells, baculovirus
T1 sequence (Q9Y5L3 29-462): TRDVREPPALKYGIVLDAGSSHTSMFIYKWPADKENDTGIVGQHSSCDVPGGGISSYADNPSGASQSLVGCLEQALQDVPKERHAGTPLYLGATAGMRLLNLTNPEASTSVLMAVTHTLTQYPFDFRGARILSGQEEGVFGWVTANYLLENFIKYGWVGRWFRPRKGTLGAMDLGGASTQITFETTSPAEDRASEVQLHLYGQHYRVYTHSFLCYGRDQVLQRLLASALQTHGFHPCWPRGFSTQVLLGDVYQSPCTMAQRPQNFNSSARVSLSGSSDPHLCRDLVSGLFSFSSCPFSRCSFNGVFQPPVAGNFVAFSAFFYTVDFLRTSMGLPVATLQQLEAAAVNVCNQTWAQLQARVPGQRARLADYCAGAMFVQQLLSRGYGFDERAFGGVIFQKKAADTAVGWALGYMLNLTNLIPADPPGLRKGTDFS

T2: ENTPD2 (Homo sapiens, UniProt Q9Y5L3)
T2 sequence (Q9Y5L3 1-495): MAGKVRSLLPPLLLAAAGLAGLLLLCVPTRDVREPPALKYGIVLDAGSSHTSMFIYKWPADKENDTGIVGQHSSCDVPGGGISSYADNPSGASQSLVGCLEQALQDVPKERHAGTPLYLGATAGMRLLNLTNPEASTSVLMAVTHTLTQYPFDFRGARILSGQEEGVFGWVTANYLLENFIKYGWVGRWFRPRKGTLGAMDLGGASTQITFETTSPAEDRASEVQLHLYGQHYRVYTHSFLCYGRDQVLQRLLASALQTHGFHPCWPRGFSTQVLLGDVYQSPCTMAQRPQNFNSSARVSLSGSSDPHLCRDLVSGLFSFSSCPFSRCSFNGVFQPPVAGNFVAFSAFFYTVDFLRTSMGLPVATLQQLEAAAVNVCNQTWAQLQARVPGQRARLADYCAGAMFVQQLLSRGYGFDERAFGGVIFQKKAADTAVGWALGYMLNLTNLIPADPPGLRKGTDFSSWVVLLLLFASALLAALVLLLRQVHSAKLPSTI

B1: mAb17: hybridoma-derived lead inhibitory anti-human ENTPD2 mAb (antibody, V domains shown)
VH: EVQLQQFGAELVKPGASVKISCKASGYTFTDYNMDWVKQSHGKSLEWIGDINPKYDISTYNQQFKGKATLTVDKSSSTAYMELRSLTSEDTAVYYCARRGFFLYYGINYYYFDVWGAGTTVTVSS
VL: QIVLTQSPAIMSASLGEEITLTCSASSSVSYIHWYQQKSGTSPTLLIYSTSNLASGVPSRFSGSGSGTFYSLTISSVEAEDAADYYCHQWSSYPWTFGGGTKLEIK

Columns and labels:
[1] = system: human ENTPD2 engineered B16LM3 clone B5 tumor; experiment: Human ENTPD2 engineered B16LM3 clone B5 xenograft model, combination with A2AR antagonist NIR178; assay type: in vivo; settings: NIR178 p.o. 4 days on and 3 days off at either 50 or 200 mg/kg with isotype control 10 mg/kg
Experimental: Human ENTPD2-engineered B16LM3 clone B5 was established in female C57BL/6 mice by subcutaneous injection of 0.5×10^6 cells into the right flank of each mouse. Once tumors reached approximately 50 mm^3, mice were randomized according to tumor volume into treatment groups (n=8 per group). Mice received an intravenous (i.v.) treatment of either anti-ENTPD2 mAb1 at a final dose of 10/mg/kg or a non-specific human IgG1 isotype control 10 mg/kg on day 1 of study. NIR178 was administered per os (p.o.) for 4 days on and 3 days off, starting at the beginning of study at either 50 mg/kg or 200 mg/kg. All doses were adjusted to individual mouse body weights. The study was carried out for thirteen days post treatment initiation and tumor volumes were assessed every other day to assess efficacy.

[2] = target: T1, recombinant human ENTPD2 (residues 29-462); experiment: Biochemical human ENTPD2 functional assay (Transcreener ADP2 TR-FRET); settings: FIG. 15
Description: Biochemical and cell-based functional assays were developed in-house to understand functional impact of anti-ENTPD2 Abs against purified extracellular domain of ENTPD2 (residues 29-462), as well as against the fully intact protein in the context of the native cell-based conformation. ENTPD2 hydrolyzes ATP to ADP, which can subsequently be detected using the HTRF Transcreener ADP2 TR-FRET Red Assay (BellBrook Labs, Madison, WI) where ENTPD2-produced ADP would compete with the ADP Tracer for binding to the anti-ADP-Tb antibody. The resulting signal is inversely proportional to the concentration of ADP in the sample. […]
HTRF signal (Emission at 620 nm and 665 nm) was assessed in both assays using the Envision plate reader in HTRF mode (Perkin Elmer, Waltham, MA). HTRF ratio was determined using the following formula: HTRF ratio=R=Emission at 665 nm/Emission at 620 nm×10,000. Subsequently % Residual Activity and % Inhibition were determined as follows:
Where R0% is the HTRF ratio of the negative control (0% enzyme activity), and R100% is the HTRF ratio of the positive control (100% enzyme activity). Data were analyzed in Microsoft Excel and graphed using GraphPad's Prism 7.0 software and IC50 values were obtained using non-linear regression, log (agonist) vs. response-variable slope (four parameters) analysis.

ENTPD2 = target: T2, ENTPD2; experiment: Hybridoma mAb screen, cell-based assay for inhibition of ATP hydrolysis by ENTPD2; settings: hybridoma-derived mAbs
Description: Hybridoma-derived mAbs were screened in a cell-based assay for inhibition of ATP hydrolysis by ENTPD2.

Row | Molecule | anti-tumor efficacy, non-specific isotype control and NIR178 [1] | inhibition of the catalytic activity of the recombinant human ENTPD2 [2] | inhibition of ATP hydrolysis by ENTPD2 (screen outcome) (ENTPD2)
1 | Nc1nc(-n2cccn2)nc(-n2cccn2)c1Br [NIR178, 5-bromo-2,6-di-(1H-pyrazol-1-yl)pyrimidine-4-amine] | No significant anti-tumor efficacy |  | 
2 | B1 |  | potently inhibit | lead inhibitory
